Experimental data as given in PMC4686876.
Like-named read-outs stand apart in the source and are kept apart here.

Assays:
[1] = biological target: T1, interferon-gamma (IFNγ) (human) (UniProt P01579); experiment: SPR; details: SPR (BIAcore T200, biotinylated aptamer on SA chip), 1x PBS (1 mM KH2PO4, 3 mM Na2HPO4) with 205 mM NaCl final, 0.05% NP-40, pH 7.4, 25 °C, IFNγ 1.25-50 nM
T1 sequence: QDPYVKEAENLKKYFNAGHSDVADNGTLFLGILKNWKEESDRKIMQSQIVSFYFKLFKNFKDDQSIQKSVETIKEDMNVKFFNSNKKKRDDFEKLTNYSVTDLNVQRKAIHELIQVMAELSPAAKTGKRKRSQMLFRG

[2] = biological target: T1, interferon-gamma (IFNγ) (human); details: N = unnatural base Ds at positions 18, 29, 40; SPR (BIAcore T200, biotinylated aptamer on SA chip), 1x PBS (1 mM KH2PO4, 3 mM Na2HPO4) with 205 mM NaCl final, 0.05% NP-40, pH 7.4, 25 °C; IFNγ 1.25-50 nM; cited from earlier work

In the case of “CCCGCCCGGGTCCGCGAAGCGGTAGGTNTGGGCTAGGCNGCTGGCGGGCGCGAAGCG [aptamer 57mhGC]”, the Kd ([1]; N = unnatural base Ds at positions 28, 39) is reported as 0.033 nM.

For “TCCACTCGGGTCATTTANTAATGTAGGTNTGGGCTAGGCNGCTAGTGGA [aptamer 49]”, the Kd ([1]; N = unnatural base Ds at positions 18, 29, 40) is given as 0.046 nM and the Kd [2] is given as 0.046 nM.
